# Data as given in the supplement of paper PMC9112550, “Optimization of the antimicrobial peptide Bac7 by deep mutational scanning” (BMC Biology, 2022).
# Test system: Escherichia coli TOP10
# Experiment: shrunken log2 fold change of peptide-encoding DNA abundance (4.5 h post-induction vs induction); higher = less antimicrobial activity (less host growth inhibition)
# Conditions: time post-induction: 4.5 h; library: site-saturation at positions 5, 18, 19, 20
# 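Also: peptides expressed intracellularly from a pBAD plasmid library in pooled LB shake-flask culture, induced with 0.3% L-arabinose, DNA abundance read by NGS, three biological replicates, DESeq2 with apeglm shrinkage.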
row,Sequence,shrunken log2 fold change
1,RRIRLRPPRLPRPRPRPGYQPRP,-0.133
2,RRIRYRPPRLPRPRPRPVCYPRP,-0.209
3,RRIRVRPPRLPRPRPRPMMCPRP,-0.00174
4,RRIRARPPRLPRPRPRPNCQPRP,0.267
5,RRIRARPPRLPRPRPRPRNPPRP,0.225
6,RRIRMRPPRLPRPRPRPHAFPRP,0.179
7,RRIRWRPPRLPRPRPRPDLWPRP,0.234
8,RRIRGRPPRLPRPRPRPLSHPRP,0.557
9,RRIRERPPRLPRPRPRPWRSPRP,0.196
10,RRIRKRPPRLPRPRPRPTFCPRP,0.193
11,RRIRQRPPRLPRPRPRPGWDPRP,0.135
12,RRIRYRPPRLPRPRPRPICWPRP,0.142
13,RRIRIRPPRLPRPRPRPDHLPRP,-0.846
14,RRIRGRPPRLPRPRPRPCHVPRP,-0.172
15,RRIRPRPPRLPRPRPRPCYRPRP,-0.154
16,RRIRWRPPRLPRPRPRPDYSPRP,-0.106
17,RRIRWRPPRLPRPRPRPGANPRP,0.0566
18,RRIRDRPPRLPRPRPRPQGCPRP,0.0122
19,RRIRKRPPRLPRPRPRPAQNPRP,0.943
20,RRIRHRPPRLPRPRPRPLQRPRP,-0.187
21,RRIRPRPPRLPRPRPRPTLKPRP,0.114
22,RRIRLRPPRLPRPRPRPRWFPRP,0.602
23,RRIRDRPPRLPRPRPRPDREPRP,-0.0481
24,RRIRIRPPRLPRPRPRPCHQPRP,-0.245
25,RRIRLRPPRLPRPRPRPRLVPRP,0.0317

row,Sequence,shrunken log2 fold change
1,RRIRCRPPRLPRPRPRPYCRPRP,-0.0628
2,RRIRSRPPRLPRPRPRPWNFPRP,-0.0212
3,RRIRTRPPRLPRPRPRPIWVPRP,-0.0869
4,RRIRCRPPRLPRPRPRPPERPRP,0.576
5,RRIRDRPPRLPRPRPRPLNEPRP,-0.188
6,RRIRWRPPRLPRPRPRPTLVPRP,-0.212
7,RRIRYRPPRLPRPRPRPILQPRP,0.049
8,RRIRVRPPRLPRPRPRPYTDPRP,-0.339
9,RRIRPRPPRLPRPRPRPNLKPRP,-0.0156
10,RRIRYRPPRLPRPRPRPCSLPRP,0.0201
11,RRIRGRPPRLPRPRPRPVCYPRP,0.833
12,RRIRHRPPRLPRPRPRPMGMPRP,-0.254
13,RRIRKRPPRLPRPRPRPGECPRP,0.381
14,RRIRHRPPRLPRPRPRPFYGPRP,-0.0135
15,RRIRYRPPRLPRPRPRPMPPPRP,-0.331
16,RRIRPRPPRLPRPRPRPFWRPRP,0.0788
17,RRIRLRPPRLPRPRPRPEHVPRP,-0.0237
18,RRIRNRPPRLPRPRPRPYALPRP,-0.399
19,RRIRDRPPRLPRPRPRPVTPPRP,0.214
20,RRIRARPPRLPRPRPRPMWWPRP,0.166
21,RRIRYRPPRLPRPRPRPFCMPRP,-0.604
22,RRIRNRPPRLPRPRPRPFECPRP,-0.000687
23,RRIRERPPRLPRPRPRPPGKPRP,0.28
24,RRIRYRPPRLPRPRPRPHEVPRP,-0.0317
25,RRIRNRPPRLPRPRPRPFDWPRP,0.0435

row,Sequence,shrunken log2 fold change
1,RRIRKRPPRLPRPRPRPITPPRP,0.0433
2,RRIRYRPPRLPRPRPRPQCMPRP,-0.931
3,RRIRIRPPRLPRPRPRPTQPPRP,-0.0427
4,RRIRNRPPRLPRPRPRPWHNPRP,-0.146
5,RRIRCRPPRLPRPRPRPHNAPRP,-0.171
6,RRIRFRPPRLPRPRPRPTMCPRP,-0.274
7,RRIRQRPPRLPRPRPRPEMNPRP,0.0404
8,RRIRQRPPRLPRPRPRPWCIPRP,0.0342
9,RRIRSRPPRLPRPRPRPKYVPRP,-0.527
10,RRIRDRPPRLPRPRPRPLGAPRP,0.751
11,RRIRNRPPRLPRPRPRPERYPRP,0.0573
12,RRIRNRPPRLPRPRPRPQHGPRP,-0.0487
13,RRIRHRPPRLPRPRPRPPRDPRP,0.346
14,RRIRKRPPRLPRPRPRPCVMPRP,0.0542
15,RRIRPRPPRLPRPRPRPAAPPRP,0.467
16,RRIRWRPPRLPRPRPRPDMCPRP,0.262
17,RRIRARPPRLPRPRPRPIQDPRP,0.0826
18,RRIRYRPPRLPRPRPRPEWDPRP,-0.0176
19,RRIRRRPPRLPRPRPRPKHVPRP,0.19
20,RRIRIRPPRLPRPRPRPPYHPRP,-0.652
21,RRIRHRPPRLPRPRPRPNSNPRP,-1.16
22,RRIRARPPRLPRPRPRPEMVPRP,0.00546
23,RRIRARPPRLPRPRPRPYLYPRP,-0.312
24,RRIRIRPPRLPRPRPRPANYPRP,-0.33
25,RRIRSRPPRLPRPRPRPDMDPRP,-0.201
